Consider 1 protein from FireProtDB (doi:10.1021/bi00369a002).

Where “and” joins values, the source holds several entries; their conditions need not be identical. Equal entries are not always repeated.

For this series the following is noted: Escherichia coli (strain K12); pH 7.8; 25 °C; Urea; Absorbance; Potassium phosphate 10 mM; transition: 3; whole UniProt chain shown.

B1: Tryptophan synthase alpha chain wild type, P0A877 (protein)
chain: MERYESLFAQLKERKEGAFVPFVTLGDPGIEQSLKIIDTLIEAGADALELGIPFSDPLADGPTIQNATLRAFAAGVTPAQCFEMLALIRQKHPTIPIGLLMYANLVFNKGIDEFYAQCEKVGVDSVLVADVPVEESAPFRQAALRHNVAPIFICPPNADDDLLRQIASYGRGYTYLLSRAGVTGAENRAALPLNHLVAKLKEYNAAPPLQGFGISAPDQVKAAIDAGAAGAISGSAIVKIIEQHINEPEKMLAALKVFVQPMKAATRS
B1: the denaturant m value was 2.2 kcal/mol/M and 1.2 kcal/mol/M; the “denaturant midpoint (higher = more stable)” value was 2.62 M and 4.18 M.
